US20170233495A1 (CALYPSO BIOTECH, published 2017)
Residue numbers refer to the chain shown, from its start. Read-outs that look alike come from different tables or passages of the source.

B1: F20-VH-GL1/B03-VL-GL1c (antibody, human IgG4, V domains shown)
VH: EVQLVESGGGLVQPGRSLRLSCAASGFTFNDYPMHWVRQAPGKGLEWVSGISSNSGSVGYADSVKGRFTISRDNAKNSLYLQMNSLRAEDTALYYCARDKIYYGSGSYDFYYYYGMDVWGQGTTVTVSS
VL: SSELTQDPAVSVALGQTVRITCQGDSLRSYYASWYQQKPGQAPVVVIYGKNNRPSGIPDRFSGSSSGNTVSLTITGAQAEDEADYYCQSRDNIGNHRVVLFGGGTKLTVL
B2: F20-VH-GL1/B08-VL-GL6c (antibody, human IgG4, V domains shown)
VH: B1 VH
VL: QSALTQPASVSGSPGQSITISCTGTSNDVGAYNRVSWYQQHPGKAPKLMIYGVSNRPSGVSNRFSGSKSGNTASLTISGLQAEDEADFYCTSYSSSTTSYVVFGGGTKVTVL
B3: F20-VH-GL1-V4-V9/B08-VL-GL6c (antibody, human IgG4 S228P, V domains shown)
VH: B1 VH with N54R, D62E
VL: B2 VL
notes: The light chain constant region is not tied to it; also called F20-VH/B08-VLc variant; F20-VH/B08-VLc
B4: F20-VH-GL1-V1-V9-V14/B03-VL-GL1c (antibody, human IgG4 S228P, V domains shown)
VH: B1 VH with N54Q, D62E, M116I
VL: B1 VL
B5: F20-VH-GL1-V4-V9-V14/B08-VL-GL6c (antibody, human IgG4 S228P, V domains shown)
VH: B1 VH with N54R, D62E, M116I
VL: B2 VL
B6: F20-VH-GL1-V4-V9-V14/B03-VL-GL1c (antibody, human IgG4 S228P, V domains shown)
VH: B1 VH with N54R, D62E, M116I
VL: B1 VL
B7: F20-VH-GL1-V1-V9-V14/B08-VL-GL6c (antibody, human IgG4 S228P, V domains shown)
VH: B1 VH with N54Q, D62E, M116I
VL: B2 VL
B8: F20-VH-GL1-V1-V9/B08-VL-GL6c (antibody, human IgG4 S228P, V domains shown)
VH: B1 VH with N54Q, D62E
VL: B2 VL
B9: comparative antibody 1 (antibody known as AB0041) (antibody, human IgG4 S228P, kappa, V domains shown)
VH: QVQLKESGPGLVAPSQSLSITCTVSGFSLLSYGVHWVRQPPGKGLEWLGVIWTGGTTNYNSALMSRLSISKDDSKSQVFLKMNSLQTDDTAIYYCARYYYGMDYWGQGTSVTVSS
VL: DIVMTQSHKFMSTSVGDRVSITCKASQDVRNTVAWYQQKTGQSPKLLIYSSSYRNTGVPDRFTGSGSGTDFTFTISSVQAEDLAVYFCQQHYITPYTFGGGTKLEIKR
notes: also called anti-MMP9 comparative antibody 1

Experiments:
[1] = biological target: rat proMMP9 (rat, UniProt P50282 20-708); assay: cell-based or functional assay
rat proMMP9, sequence (P50282 20-708): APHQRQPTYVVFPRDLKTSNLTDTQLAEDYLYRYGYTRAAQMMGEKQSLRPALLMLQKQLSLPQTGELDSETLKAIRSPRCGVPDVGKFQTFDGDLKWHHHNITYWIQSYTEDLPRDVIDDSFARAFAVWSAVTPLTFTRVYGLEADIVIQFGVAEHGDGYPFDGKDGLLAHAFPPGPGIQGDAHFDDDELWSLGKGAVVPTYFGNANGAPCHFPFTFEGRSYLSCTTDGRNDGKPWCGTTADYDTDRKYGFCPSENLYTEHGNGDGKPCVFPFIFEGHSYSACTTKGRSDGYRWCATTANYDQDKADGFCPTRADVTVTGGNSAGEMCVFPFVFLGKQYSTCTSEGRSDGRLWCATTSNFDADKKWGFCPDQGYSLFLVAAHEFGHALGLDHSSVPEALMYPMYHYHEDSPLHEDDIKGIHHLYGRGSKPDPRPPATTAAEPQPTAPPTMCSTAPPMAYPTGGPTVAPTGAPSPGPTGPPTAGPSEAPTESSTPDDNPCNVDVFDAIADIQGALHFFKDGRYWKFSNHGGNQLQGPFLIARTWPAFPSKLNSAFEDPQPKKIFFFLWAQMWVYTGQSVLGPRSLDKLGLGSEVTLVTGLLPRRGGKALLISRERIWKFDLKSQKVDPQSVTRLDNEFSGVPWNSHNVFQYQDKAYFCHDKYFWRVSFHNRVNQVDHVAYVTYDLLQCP

[2] = biological target: Cynomologus monkey (cyno) proMMP9 (Cynomologus monkey); assay: cell-based or functional assay
[3] = biological target: mouse active MMP9 (mouse, UniProt P41245 108-730, limits assumed); assay: cell-based or functional assay
mouse active MMP9, sequence (P41245 108-730 limits assumed): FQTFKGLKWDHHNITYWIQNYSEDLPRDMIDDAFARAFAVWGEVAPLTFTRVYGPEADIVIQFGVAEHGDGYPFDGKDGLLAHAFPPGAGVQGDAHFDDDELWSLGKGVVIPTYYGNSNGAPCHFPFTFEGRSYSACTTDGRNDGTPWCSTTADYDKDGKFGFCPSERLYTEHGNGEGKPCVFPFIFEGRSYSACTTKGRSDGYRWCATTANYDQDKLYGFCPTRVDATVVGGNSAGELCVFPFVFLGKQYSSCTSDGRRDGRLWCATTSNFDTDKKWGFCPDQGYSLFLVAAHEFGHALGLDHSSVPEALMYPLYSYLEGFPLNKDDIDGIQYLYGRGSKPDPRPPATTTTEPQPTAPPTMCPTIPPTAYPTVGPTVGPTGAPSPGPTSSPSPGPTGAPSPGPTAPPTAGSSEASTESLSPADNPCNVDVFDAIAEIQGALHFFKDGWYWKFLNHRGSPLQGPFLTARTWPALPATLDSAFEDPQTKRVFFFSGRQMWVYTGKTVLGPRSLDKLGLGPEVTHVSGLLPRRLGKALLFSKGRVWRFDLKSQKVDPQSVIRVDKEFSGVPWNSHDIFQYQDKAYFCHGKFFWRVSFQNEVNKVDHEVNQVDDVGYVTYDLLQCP

[4] = biological target: mouse proMMP9 (mouse, UniProt P41245 20-730); assay: cell-based or functional assay
mouse proMMP9, sequence (P41245 20-730): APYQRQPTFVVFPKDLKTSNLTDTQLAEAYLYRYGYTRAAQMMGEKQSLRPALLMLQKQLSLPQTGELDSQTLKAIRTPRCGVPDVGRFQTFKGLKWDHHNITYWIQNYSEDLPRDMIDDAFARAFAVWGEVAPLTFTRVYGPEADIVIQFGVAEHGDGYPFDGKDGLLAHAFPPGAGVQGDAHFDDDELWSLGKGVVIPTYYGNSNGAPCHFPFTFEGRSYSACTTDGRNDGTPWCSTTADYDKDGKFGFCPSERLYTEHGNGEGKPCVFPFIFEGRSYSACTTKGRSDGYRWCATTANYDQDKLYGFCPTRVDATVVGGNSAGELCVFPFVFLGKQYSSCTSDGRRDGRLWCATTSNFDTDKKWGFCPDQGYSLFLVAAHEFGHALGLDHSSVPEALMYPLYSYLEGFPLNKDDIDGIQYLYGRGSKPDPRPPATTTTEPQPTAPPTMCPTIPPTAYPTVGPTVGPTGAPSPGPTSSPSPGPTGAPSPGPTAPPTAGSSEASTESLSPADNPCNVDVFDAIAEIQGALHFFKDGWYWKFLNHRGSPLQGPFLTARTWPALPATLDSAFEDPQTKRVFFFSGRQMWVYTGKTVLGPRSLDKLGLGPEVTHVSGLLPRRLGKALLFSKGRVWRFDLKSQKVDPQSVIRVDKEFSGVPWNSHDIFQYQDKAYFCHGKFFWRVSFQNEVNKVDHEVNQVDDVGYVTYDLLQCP

[5] = biological target: T1, recombinant human proMMP9 (full length, latent form) (human, UniProt P14780 20-707); assay: cell-based or functional assay
T1 sequence (P14780 20-707): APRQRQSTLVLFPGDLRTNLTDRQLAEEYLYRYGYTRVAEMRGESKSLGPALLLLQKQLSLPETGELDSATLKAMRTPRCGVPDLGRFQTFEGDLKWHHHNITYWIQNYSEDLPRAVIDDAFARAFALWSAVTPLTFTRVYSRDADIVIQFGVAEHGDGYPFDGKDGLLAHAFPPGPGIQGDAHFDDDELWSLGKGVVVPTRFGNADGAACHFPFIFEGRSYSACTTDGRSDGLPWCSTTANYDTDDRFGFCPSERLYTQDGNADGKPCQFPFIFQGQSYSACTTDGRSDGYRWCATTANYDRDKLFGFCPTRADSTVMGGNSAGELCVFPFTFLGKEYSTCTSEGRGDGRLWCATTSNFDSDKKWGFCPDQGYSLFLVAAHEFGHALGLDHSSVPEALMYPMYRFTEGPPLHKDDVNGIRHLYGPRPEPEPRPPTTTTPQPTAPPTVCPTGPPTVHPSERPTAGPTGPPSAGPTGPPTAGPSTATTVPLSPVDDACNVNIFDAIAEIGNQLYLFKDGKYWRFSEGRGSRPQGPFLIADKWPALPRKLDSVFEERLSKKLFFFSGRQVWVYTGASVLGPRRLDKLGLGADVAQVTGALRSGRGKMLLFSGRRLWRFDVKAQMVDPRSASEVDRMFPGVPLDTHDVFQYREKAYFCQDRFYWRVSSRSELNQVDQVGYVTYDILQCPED

[6] = biological target: T2, human MMP9 (i.e. activated MMP9), catalytically active caspase-cleaved recombinant MMP9 (human, UniProt P14780 107-707); assay: cell-based or functional assay
T2 sequence (P14780 107-707): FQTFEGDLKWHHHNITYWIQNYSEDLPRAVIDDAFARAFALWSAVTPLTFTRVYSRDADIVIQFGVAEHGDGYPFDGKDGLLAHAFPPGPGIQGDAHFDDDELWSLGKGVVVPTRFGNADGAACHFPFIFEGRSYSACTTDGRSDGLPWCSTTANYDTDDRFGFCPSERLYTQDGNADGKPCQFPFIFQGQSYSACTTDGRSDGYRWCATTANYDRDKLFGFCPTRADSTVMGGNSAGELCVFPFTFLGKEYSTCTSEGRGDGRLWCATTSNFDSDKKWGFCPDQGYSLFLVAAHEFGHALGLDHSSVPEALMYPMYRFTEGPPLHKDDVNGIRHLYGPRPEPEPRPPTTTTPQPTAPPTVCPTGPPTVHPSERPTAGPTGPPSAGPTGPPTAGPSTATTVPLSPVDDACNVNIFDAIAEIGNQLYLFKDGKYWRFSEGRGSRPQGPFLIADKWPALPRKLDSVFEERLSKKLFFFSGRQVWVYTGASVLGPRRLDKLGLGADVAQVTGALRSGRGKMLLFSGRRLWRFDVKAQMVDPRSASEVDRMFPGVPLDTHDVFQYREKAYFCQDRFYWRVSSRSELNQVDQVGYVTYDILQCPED

[7] = biological target: T3, neutrophil-derived human dimeric MMP9 (human, UniProt P14780 20-707); assay: cell-based or functional assay
T3 sequence (P14780 20-707): as the sequence (P14780 20-707) above

[8] = biological target: T4, neutrophil-derived human NGAL/MMP9 complex (human, UniProt P80188 21-198); assay: cell-based or functional assay
T4 sequence (chain, as listed by the source limits assumed, chain 1 of 2): as the sequence (P14780 20-707) above
T4 sequence (P80188 21-198 limits assumed, chain 2 of 2): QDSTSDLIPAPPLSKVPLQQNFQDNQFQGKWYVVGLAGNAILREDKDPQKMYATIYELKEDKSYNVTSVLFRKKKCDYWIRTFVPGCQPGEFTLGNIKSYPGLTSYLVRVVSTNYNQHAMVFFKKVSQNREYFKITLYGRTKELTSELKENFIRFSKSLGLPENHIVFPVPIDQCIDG

[9] = biological target: T5, neutrophil-derived human monomeric MMP9 (human, UniProt P14780 20-707); assay: cell-based or functional assay
T5 sequence (P14780 20-707): as the sequence (P14780 20-707) above

[10] = biological target: T3, neutrophil-derived human dimeric MMP9; assay: cell-based or functional assay; remark: listed apart in the source
[11] = biological target: T5, neutrophil-derived human monomeric MMP9; assay: cell-based or functional assay; remark: listed apart in the source
[12] = biological target: T1, recombinant human proMMP9 (full length, …); assay: SPR (BIAcore), antibody captured by anti-human Fc, antigen titrated 4.7-150 nM; SPR (BIAcore), antibody captured by anti-human Fc, pro-MMP9 up to 150 nM; lower bound estimated from <1% binding
Procedure: (§1) In a second step, pro-MMP9 or MMP3-activated MMP9 were titrated from 4.7 to 150 nM in 2-fold dilutions.

[13] = biological target: MMP3-activated recombinant human MMP9 (human, UniProt P14780 107-707); assay: SPR (BIAcore), antibody captured by anti-human Fc, antigen titrated 4.7-150 nM
MMP3-activated recombinant human MMP9, sequence (P14780 107-707): as the sequence (P14780 107-707) above
Procedure: as §1

[14] = biological target: T3, neutrophil-derived human dimeric MMP9; assay: cell-based or functional assay; remark: listed apart in the source
[15] = biological target: T4, neutrophil-derived human NGAL/MMP9 …; assay: cell-based or functional assay; remark: listed apart in the source
[16] = biological target: T2, human MMP9 (i.e. activated MMP9), …; assay: cell-based or functional assay; remark: listed apart in the source
[17] = biological target: T5, neutrophil-derived human monomeric MMP9; assay: cell-based or functional assay; remark: listed apart in the source
[18] = biological target: T1, recombinant human proMMP9 (full length, …); assay: SPR (BIAcore), antibody captured by anti-human Fc, antigen titrated 4.7-150 nM
Procedure: as §1

[19] = biological target: T1, recombinant human proMMP9 (full length, …); assay: cell-based or functional assay; remark: listed apart in the source

Binder | Efficacy, MMP3/MMP9 gelatin assay [1] | IC50 (nM), MMP3/MMP9 gelatin assay [1] | Efficacy, MMP3/MMP9 gelatin assay [2] | IC50 (nM), MMP3/MMP9 gelatin assay [2] | Efficacy, MMP9 gelatin assay [3] | IC50 (nM), MMP9 gelatin assay [3] | Efficacy, MMP3/MMP9 gelatin assay [4] | IC50 (nM), MMP3/MMP9 gelatin assay [4] | Efficacy, DQ-gelatin digestion, MMP3/MMP9 assay [5] | IC50 (nM), DQ-gelatin digestion, MMP3/MMP9 assay [5] | Efficacy, DQ-gelatin digestion, MMP9 assay [6] | IC50 (nM), DQ-gelatin digestion, MMP9 assay [6] | further results
B1 | 100% | 4.99 nM | 100% | 3.85 nM | 100% | 333 nM | 25% | 38.8 nM | 100% | 9.05 nM | 100% | 1.92 nM | 
B2 | 100% | 17.4 nM | 100% | 29.9 nM | 100% | 0.86 nM | 100% | 7.91 nM | 100% | 44 nM | 100% | 3.92 nM | 
B3 | 100% | 3.16 nM | 100% | 5.86 nM | 100% | 1.27 nM | 100% | 7.8 nM | 100% | 9.52 nM | 100% | 0.97 nM | IC50 (read off the curve) [7]: ~0.5 nM; IC50 (read off the curve) [8]: ~2 nM; IC50 (read off the curve) [9]: ~2 nM; IC50 (read off the curve) [10]: ~10 nM; IC50 (read off the curve) [11]: ~10 nM; Kd [12]: > 15000 nM; Kd [13]: 11.7 nM; efficacy of inhibition, MMP3/MMP9 assay with neutrophil-derived MMP9 [14]: 100%; efficacy of neutralisation, APMA-activated neutrophil-derived MMP9, OmniMMP RED cleavage [14]: 100%; efficacy of inhibition, MMP3/MMP9 assay with neutrophil-derived MMP9 [15]: 100%; efficacy of neutralisation, APMA-activated neutrophil-derived MMP9, OmniMMP RED cleavage [15]: 100%; IC50, DQ-gelatin digestion, MMP9 assay with highly purified activated MMP9 [16]: 2.6 nM; efficacy of inhibition, MMP3/MMP9 assay with neutrophil-derived MMP9 [17]: 100%; efficacy of neutralisation, APMA-activated neutrophil-derived MMP9, OmniMMP RED cleavage [17]: 100%
B4 | 100% | 8.82 nM | 100% | 12.5 nM |  | > 500 nM |  | > 500 nM | 100% | 15.2 nM | 100% | 3.16 nM | 
B5 | 100% | 6.19 nM | 100% | 10.8 nM | 100% | 2.37 nM | 100% | 12.7 nM | 100% | 20.4 nM | 100% | 2.92 nM | 
B6 | 100% | 2.83 nM | 100% | 3.75 nM | 100% | 164 nM | 100% | 462 nM | 100% | 5.48 nM | 100% | 1.3 nM | 
B7 | 100% | 12.3 nM | 100% | 27.6 nM | 100% | 1.91 nM | 100% | 11.1 nM | 100% | 38.1 nM | 100% | 3.86 nM | 
B8 | 100% | 7.77 nM | 100% | 15.8 nM | 100% | 1.2 nM | 100% | 7.69 nM | 100% | 23.7 nM | 100% | 2.64 nM | 
B9 |  |  |  |  |  |  |  |  |  |  |  |  | IC50 (read off the curve) [8]: ~1 nM; IC50 (read off the curve) [9]: ~1 nM; Kd [18]: 0.9 nM; Kd [13]: 5 nM; efficacy of inhibition, MMP3/MMP9 assay with neutrophil-derived MMP9 [14]: 25%; IC50, DQ-gelatin digestion, MMP3/MMP9 assay [19]: 0.2 nM; efficacy of inhibition, MMP3/MMP9 assay with neutrophil-derived MMP9 [15]: 25%; efficacy of inhibition, MMP3/MMP9 assay with neutrophil-derived MMP9 [17]: 25%
